Key:
Format in all cases: cell-based, human
[1] = test system: CCRF-CEM; test: IFN-gamma ELISA, CAR T cells with CCRF-CEM target cells; conditions: Table C
Excerpt: (§1) MM.1S is a SLAMF7^+ multiple myeloma cell line that was obtained from American Type Culture Collection (ATCC). A549 is a BCMA-negative lung cancer cell line (ATCC). TC71 is a BCMA-negative sarcoma cell line. CCRF-CEM, 293T, and A549 are SLAMF7-negative cell lines (ATCC). COL0207, HepG2, U251, Panc10.05, and TC71 are […] that were kind gifts from Dr. Steven Rosenberg, National Cancer Institute. SLAMF7-K562 are K562 cells (ATCC) which were transduced with the gene for full-length SLAMF7. SLAMF7-RPMI are RPMI8226 cells (ATCC) which were transduced with the gene for full-length SLAMF7. NGFR-K562 are K562 cells which were transduced with the gene for low-affinity nerve growth factor (Kochenderfer et al., J. Immunother., 32(7): 689-702 (2009)). All of the human samples mentioned were obtained from patients enrolled in IRB-approved clinical trials at the National Cancer Institute.
(§2) One-hundred thousand SLAMF7^+ or SLAMF7-negative target cells were combined with 100,000 CAR-transduced T cells in duplicate wells of a 96 well round bottom plate in 200 µL of AIM V™ medium (Invitrogen) plus 5% human serum. The plates were incubated at 37° C. for 18-20 hours. Following the incubation, ELISAs (enzyme-linked immunosorbent assays) for IFNγ were performed by using standard methods.
(§3) All values are pg/mL of IFN-gamma. T cells that were either untransduced or transduced with one of the indicated CARs were cultured with target cells overnight, and a standard IFN-gamma ELISA was performed on the culture supernatant.

[2] = test system: SLAMF7-RPMI; test: IFN-gamma ELISA, CAR T cells cultured overnight with SLAMF7-RPMI target cells
Excerpt: as §1, §2
(§4) The T cells columns indicate whether T cells were transduced with Luc90-CD828Z, Luc63-CD828Z, or were untransduced. The % CAR^+ in Table B-1 was determined by staining the T cells with Protein L. Except for the % CAR^+ column, all values are pg/mL of IFN-gamma. T cells that were either untransduced or transduced with one of the indicated CARs were cultured with target cells overnight and a standard IFN-gamma ELISA was performed on the culture supernatant.
as §3
(§5) The values in the cells are pg/mL of IFN-gamma. T cells that were either untransduced or transduced with one of the indicated CARs were cultured with target cells overnight, and a standard IFN-gamma ELISA was performed on the culture supernatant. The concentrations of 0, 50, or 200 ng/mL at the top of each column indicates the concentration of soluble SLAMF7 added to all T cell plus target cell overnight cultures in that column. The soluble SLAMF7 was added at the beginning of the overnight culture.

[3] = test system: MM.1S; test: IFN-gamma ELISA, CAR T cells with MM.1S target cells; conditions: Table C
Excerpt: as §1, §2, §3

[4] = test system: SLAMF7-K562; test: IFN-gamma ELISA, CAR T cells cultured overnight with SLAMF7-K562 target cells
Excerpt: as §1, §2, §4, §3

[5] = test system: SLAMF7^+ target cells; test: IFN-gamma ELISA and functional assays; conditions: 4-1BB-containing CAR compared to Luc90-CD828Z (Table C)
Protocol: as §2
CAR-expressing T cells cultured alone produced very low levels of IFNγ. IFNγ production of T cells expressing a CAR with a 4-1BB moiety, Luc90-CD8BBZ, was compared to IFNγ production of T cells expressing Luc90-CD828Z (Table C). […] Low levels of soluble SLAMF7 are found in the serum of some MM patients (see Tai, et al., Blood, 112(4): 1329-1337 (2008)). IFNγ ELISA assays were conducted to determine if adding SLAMF7 to cultures of anti-SLAMF7 CAR T cells plus target cells could block IFNγ release by the CAR T cells (Table D). IFNγ release by the CART cells was used as a measure recognition of the SLAMF7^+ target cells by the CAR T cells. The concentrations of soluble SLAMF7 added to the cultures were similar to those found in the blood of patients. Blocking of SLAMF7^+ target cell recognition by the soluble SLAMF7 was not observed. Also, activation of the anti-SLAMF7 CAR T cells by the soluble SLAMF7 was not observed.

[6] = test system: H929; test: IFN-gamma ELISA, CAR T cells with H929 target cells; conditions: Table C
Protocol: as §2, §3

[7] = test system: T cells only; test: IFN-gamma ELISA, T cells only (no target cells)
Protocol: as §2, §4, §3, §5

[8] = test system: NGFR-K562; test: IFN-gamma ELISA, CAR T cells with NGFR-K562 target cells
Excerpt: as §1, §2, §4, §3, §5

[9] = test system: U251; test: IFN-gamma ELISA, CAR T cells with U251 target cells; conditions: Table B-2
Excerpt: as §1
(§6) One-hundred thousand SLAMF7^+ or SLAMF7-negative target cells were combined with 100,000 CAR-transduced T cells in duplicate wells of a 96 well round bottom plate in 200 µL of AIM V™ medium (Invitrogen) plus 5% human serum. […]
(§7) The T cells columns indicate whether T cells were transduced with Luc90-CD828Z, Luc63-CD828Z, or were untransduced. The % CAR^+ in Table B-1 was determined by staining the T cells with Protein L. Except for the % CAR^+ column, all values are pg/mL of IFN-gamma. […]

[10] = test system: TC71; test: IFN-gamma ELISA, CAR T cells with TC71 target cells; conditions: Table B-2
Excerpt: as §1, §6, §7

[11] = test system: A549; test: IFN-gamma ELISA, CAR T cells with A549 target cells; conditions: Table B-2; SLAMF7-negative
Excerpt: as §1, §6, §7

[12] = test system: COLO 205; test: IFN-gamma ELISA, CAR T cells with COLO 205 target cells; conditions: Table B-1
Excerpt: as §1, §6, §7

[13] = test system: HepG2; test: IFN-gamma ELISA, CAR T cells with HepG2 target cells; conditions: Table B-1
Excerpt: as §1, §6, §7

[14] = test system: 293T; test: IFN-gamma ELISA, CAR T cells with 293T target cells; conditions: Table B-1; SLAMF7-negative cell line
Excerpt: as §1, §6, §7

[15] = test system: Panc 10.05; test: IFN-gamma ELISA, CAR T cells with Panc 10.05 target cells; conditions: Table B-2
Excerpt: as §1, §6, §7

[16] = Table D, soluble SLAMF7 added 0 ng/ml
[17] = Table D, soluble SLAMF7 added 50 ng/ml
[18] = Table D, soluble SLAMF7 added 200 ng/ml

Molecule: Luc90-CD8BBZ: anti-SLAMF7 CAR (SEQ ID NO: 29): Luc90-CD828Z with the CD28 moiety replaced with a 4-1BB moiety
- IFN-gamma, target cells CCRF-CEM [1]: 278 pg/mL
- IFN-gamma, target cells SLAMF7-RPMI8226 ([2]; Table C, overnight culture): 19713 pg/mL
- IFN-gamma, target cells MM.1S [3]: 5101 pg/mL
- IFN-gamma, target cells SLAMF7-K562 ([4]; Table C): 16697 pg/mL
- background cytokine release [5]: Generally higher background cytokine release
- IFN-gamma, target cells H929 [6]: 856 pg/mL
- IFN-gamma, T cells only ([7]; Table C): 531 pg/mL
- IFN-gamma, target cells NGFR-K562 ([8]; Table C): 434 pg/mL

B1: Luc63-CD828Z: anti-SLAMF7 CAR (SEQ ID NO: 28): identical to Luc90-CD828Z except scFv from humanized Luc63 antibody (protein)
chain: MALPVTALLLPLALLLHAARPDIQMTQSPSSLSASVGDRVTITCKASQDVGIAVAWYQQKPGKVPKLLIYWASTRHTGVPDRFSGSGSGTDFTLTISSLQPEDVATYYCQQYSSYPYTFGQGTKVEIKGSTSGSGKPGSGEGSTKGEVQLVESGGGLVQPGGSLRLSCAASGFDFSRYWMSWVRQAPGKGLEWIGEINPDSSTINYAPSLKDKFIISRDNAKNSLYLQMNSLRAEDTAVYYCARPDGNYWYFDVWGQGTLVTVSSFVPVFLPAKPTTTPAPRPPTPAPTIASQPLSLRPEACRPAAGGAVHTRGLDFACDIYIWAPLAGTCGVLLLSLVITLYCNHRNRSKRSRLLHSDYMNMTPRRPGPTRKHYQPYAPPRDFAAYRSRVKFSRSADAPAYQQGQNQLYNELNLGRREEYDVLDKRRGRDPEMGGKPRRKNPQEGLYNELQKDKMAEAYSEIGMKGERRRGKGHDGLYQGLSTATKDTYDALHMQALPPR
- IFN-gamma, target cells U251 [9]: 46 pg/mL
- IFN-gamma, target cells TC71 [10]: 113 pg/mL
- IFN-gamma, target cells SLAMF7-RPMI ([2]; Table B-1, overnight culture, ELISA on supernatant): 8123 pg/mL
- IFN-gamma, target cells SLAMF7 RPMI 0 ng/ml [2, 16]: 3495 pg/mL
- IFN-gamma, target cells SLAMF7 RPMI 50 ng/ml [2, 17]: 2.873 ng/mL
- IFN-gamma, target cells CD319 RPMI 200 ng/ml [2, 18]: 3083 pg/mL
- IFN-gamma, target cells SLAMF7-K562 ([4]; Table B-1, overnight culture): 7106 pg/mL
- IFN-gamma, target cells SLAMF7-K562 ([4]; Table B-2, overnight culture): 7524 pg/mL
- IFN-gamma, target cells A549 [11]: 76 pg/mL
- IFN-gamma, target cells COLO 205 [12]: 29 pg/mL
- IFN-gamma, target cells HepG2 [13]: 33 pg/mL
- IFN-gamma, target cells 293T [14]: 38 pg/mL
- IFN-gamma, target cells Panc 10.05 [15]: 53 pg/mL
- IFN-gamma, T cells only ([7]; Table B-2): 71 pg/mL
- IFN-gamma, T cells 0 ng/ml ([7]; Table D, no target cells, soluble SLAMF7 0 ng/ml): 20 pg/mL
- IFN-gamma, T cells 50 ng/ml ([7]; Table D, no target cells, soluble SLAMF7 50 ng/ml): 22 pg/mL
- IFN-gamma, T cells 200 ng/ml ([7]; Table D, no target cells, soluble SLAMF7 200 ng/ml): 30 pg/mL
- IFN-gamma, target cells NGFR-K562 ([8]; Table B-2, SLAMF7-negative): 78 pg/mL
- IFN-gamma, target cells NGFR K562 0 ng/ml [8, 16]: 191 pg/mL
- IFN-gamma, target cells NGFR K562 50 ng/ml [8, 17]: 98 pg/mL
- IFN-gamma, target cells NGFR K562 200 ng/ml [8, 18]: 83 pg/mL

Source: patent US11951131B2, “Anti-SLAMF7 chimeric antigen receptors” (The United States of America, as represented by the …, priority 2018, dated 2024)
